Assay results: paper PMC3928310, “Model of a DNA-Protein Complex of the Architectural Monomeric Protein MC1 from Euryarchaea”

Legend:
MC1 WT [1] = target: T1, MC1 WT (Methanosarcina thermophila CHTI55, UniProt P12770 1-93); test: NMR chemical shift perturbation; EMSA: 10 mM Tris-HCl pH 7.5, 150 mM NaCl, 1 mM EDTA, 15 ug/ml BSA, 8% glycerol, 15 min at 20 C, 0.1 nM DNA, TBE gel; NMR PRE: 10 mM phosphate pH 6, 100 mM NaCl, 10% D2O; conditions: protein: recombinant; blunt
T1 sequence: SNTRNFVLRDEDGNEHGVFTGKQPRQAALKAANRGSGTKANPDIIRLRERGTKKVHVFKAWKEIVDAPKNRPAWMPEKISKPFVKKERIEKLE

MC1 WT [2] = target: T1, MC1 WT; test: NMR PRE; Mn2+ (EDTA-chelated probe); protein:DNA 1:1.2; EMSA: 10 mM Tris-HCl pH 7.5, 150 mM NaCl, 1 mM EDTA, 15 ug/ml BSA, 8% glycerol, 15 min at 20 C, 0.1 nM DNA, TBE gel; NMR PRE: 10 mM phosphate pH 6, 100 mM NaCl, 10% D2O; conditions: protein: recombinant; label: paramagnetic dT-EDTA-Mn2+; blunt
MC1 WT [3] = target: T1, MC1 WT; test: EMSA; EMSA: 10 mM Tris-HCl pH 7.5, 150 mM NaCl, 1 mM EDTA, 15 ug/ml BSA, 8% glycerol, 15 min at 20 C, 0.1 nM DNA, TBE gel; NMR PRE: 10 mM phosphate pH 6, 100 mM NaCl, 10% D2O; conditions: protein: recombinant; label: 5'-32P on one strand; blunt

B1: 15 bp NMR duplex (dsDNA)
DNA 1: AAAAACACACACCCA
DNA 2: TGGGTGTGTGTTTTT
- binding result (MC1 WT [1]): binds

B2: DNA1* (dsDNA)
DNA 1: AAAAACACACACCCA
DNA 2: TGGGTGTGTGTTTTT
modifications: dT-EDTA (Mn2+) at the 5'-terminal T16 of strand 2
- binding result (MC1 WT [2]): binds

B3: 26 bp EMSA duplex (dsDNA)
DNA 1: GCCTCAAAAACACACACCCCCGACAG
DNA 2: CTGTCGGGGGTGTGTGTTTTTGAGGC
- Kd (MC1 WT [3]): 1.2 ± 0.1 nM
